Results published in patent US20190177417A1 (BIOATLA, published 2019).
Like-named read-outs stand apart in the source and are kept apart here.

Experiments:
Axl protein [1] = target: T1, Axl protein (human, UniProt P30530 26-451); assay: ELISA, 1:9 dilution, pH 6.0 over pH 7.4
T1 construct: extracellular domain; also called human Axl; hAxl
T1 sequence (looked up): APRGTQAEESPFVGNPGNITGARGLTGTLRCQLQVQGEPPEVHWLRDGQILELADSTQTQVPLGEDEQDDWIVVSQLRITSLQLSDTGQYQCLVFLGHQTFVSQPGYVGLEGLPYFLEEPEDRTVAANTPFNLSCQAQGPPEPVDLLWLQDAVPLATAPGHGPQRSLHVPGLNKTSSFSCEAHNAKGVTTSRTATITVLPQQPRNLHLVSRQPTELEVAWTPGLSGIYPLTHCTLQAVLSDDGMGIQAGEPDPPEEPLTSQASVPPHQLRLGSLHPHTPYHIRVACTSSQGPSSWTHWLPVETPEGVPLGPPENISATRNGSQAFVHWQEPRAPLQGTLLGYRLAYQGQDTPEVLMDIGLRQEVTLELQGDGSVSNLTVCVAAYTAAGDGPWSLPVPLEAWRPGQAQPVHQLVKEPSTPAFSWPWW

Axl protein [2] = target: T1, Axl protein; assay: ELISA, 1:3 dilution, pH 6.0 over pH 7.4
Axl protein [3] = target: T1, Axl protein; assay: ELISA, 1:3 dilution, pH 6.0 over pH 7.4; remark: listed apart in the source
Axl protein [4] = target: T1, Axl protein; assay: ELISA, 1:9 dilution, pH 6.0 over pH 7.4; remark: listed apart in the source

B1: LC-V029D (antibody, V domains shown)
VH: EVQLVQSGAEVKKPGATVKISCKVSGYSFTGHTMNWIRQPPGKGLEWIGLIKPSNGGTSYNQKFKGRVTISADKSISTAYLQWSSLKASDTAMYYCAHGHYESYFAMDYWGQGTLVTVSS
VL: DIQMTQSPSSLSASVGDRVTITCKASQDDSSAVAWYQQKPGQAPRLLIYWASTRHTGVPSRFSGSGSGTEFTLTISSLQPDDFATYYCQEHFSTPLTFGQGTKVEIK
Affinity ELISA CPE mutant ratio (1:9, pH 6.0/7.4) (Axl protein [1]): 2.68 ratio | Affinity ELISA CPE mutant ratio (1:3, pH 6.0/7.4) (Axl protein [2]): 2.88 ratio

B2: LC-H091S (antibody, V domains shown)
VH: EVQLVQSGAEVKKPGATVKISCKVSGYSFTGHTMNWIRQPPGKGLEWIGLIKPSNGGTSYNQKFKGRVTISADKSISTAYLQWSSLKASDTAMYYCAHGHYESYFAMDYWGQGTLVTVSS
VL: DIQMTQSPSSLSASVGDRVTITCKASQDVSSAVAWYQQKPGQAPRLLIYWASTRHTGVPSRFSGSGSGTEFTLTISSLQPDDFATYYCQESFSTPLTFGQGTKVEIK
Affinity ELISA CPE mutant ratio (1:9, pH 6.0/7.4) (Axl protein [1]): 1.34 ratio | Affinity ELISA CPE mutant ratio (1:3, pH 6.0/7.4) (Axl protein [2]): 1.76 ratio

B3: LC-V029G (antibody, V domains shown)
VH: EVQLVQSGAEVKKPGATVKISCKVSGYSFTGHTMNWIRQPPGKGLEWIGLIKPSNGGTSYNQKFKGRVTISADKSISTAYLQWSSLKASDTAMYYCAHGHYESYFAMDYWGQGTLVTVSS
VL: DIQMTQSPSSLSASVGDRVTITCKASQDGSSAVAWYQQKPGQAPRLLIYWASTRHTGVPSRFSGSGSGTEFTLTISSLQPDDFATYYCQEHFSTPLTFGQGTKVEIK
Affinity ELISA CPE mutant ratio (1:9, pH 6.0/7.4) (Axl protein [1]): 1.8 ratio | Affinity ELISA CPE mutant ratio (1:3, pH 6.0/7.4) (Axl protein [2]): 1.94 ratio

B4: LC-H091T (antibody, V domains shown)
VH: EVQLVQSGAEVKKPGATVKISCKVSGYSFTGHTMNWIRQPPGKGLEWIGLIKPSNGGTSYNQKFKGRVTISADKSISTAYLQWSSLKASDTAMYYCAHGHYESYFAMDYWGQGTLVTVSS
VL: DIQMTQSPSSLSASVGDRVTITCKASQDVSSAVAWYQQKPGQAPRLLIYWASTRHTGVPSRFSGSGSGTEFTLTISSLQPDDFATYYCQETFSTPLTFGQGTKVEIK
Affinity ELISA CPE mutant ratio (1:9, pH 6.0/7.4) (Axl protein [1]): 3.78 ratio | Affinity ELISA CPE mutant ratio (1:3, pH 6.0/7.4) (Axl protein [2]): 3.78 ratio

B5: LC-V029N (antibody, V domains shown)
VH: EVQLVQSGAEVKKPGATVKISCKVSGYSFTGHTMNWIRQPPGKGLEWIGLIKPSNGGTSYNQKFKGRVTISADKSISTAYLQWSSLKASDTAMYYCAHGHYESYFAMDYWGQGTLVTVSS
VL: DIQMTQSPSSLSASVGDRVTITCKASQDNSSAVAWYQQKPGQAPRLLIYWASTRHTGVPSRFSGSGSGTEFTLTISSLQPDDFATYYCQEHFSTPLTFGQGTKVEIK
Affinity ELISA CPE mutant ratio (1:9, pH 6.0/7.4) (Axl protein [1]): 2.65 ratio | Affinity ELISA CPE mutant ratio (1:3, pH 6.0/7.4) (Axl protein [2]): 2.6 ratio

B6: LC-H091V (antibody, V domains shown)
VH: EVQLVQSGAEVKKPGATVKISCKVSGYSFTGHTMNWIRQPPGKGLEWIGLIKPSNGGTSYNQKFKGRVTISADKSISTAYLQWSSLKASDTAMYYCAHGHYESYFAMDYWGQGTLVTVSS
VL: DIQMTQSPSSLSASVGDRVTITCKASQDVSSAVAWYQQKPGQAPRLLIYWASTRHTGVPSRFSGSGSGTEFTLTISSLQPDDFATYYCQEVFSTPLTFGQGTKVEIK
Affinity ELISA CPE mutant ratio (1:9, pH 6.0/7.4) (Axl protein [1]): 1.17 ratio | Affinity ELISA CPE mutant ratio (1:3, pH 6.0/7.4) (Axl protein [2]): 4.13 ratio

B7: LC-V029W (antibody, V domains shown)
VH: EVQLVQSGAEVKKPGATVKISCKVSGYSFTGHTMNWIRQPPGKGLEWIGLIKPSNGGTSYNQKFKGRVTISADKSISTAYLQWSSLKASDTAMYYCAHGHYESYFAMDYWGQGTLVTVSS
VL: DIQMTQSPSSLSASVGDRVTITCKASQDWSSAVAWYQQKPGQAPRLLIYWASTRHTGVPSRFSGSGSGTEFTLTISSLQPDDFATYYCQEHFSTPLTFGQGTKVEIK
Affinity ELISA CPE mutant ratio (1:9, pH 6.0/7.4) (Axl protein [1]): 2.35 ratio | Affinity ELISA CPE mutant ratio (1:3, pH 6.0/7.4) (Axl protein [2]): 2.31 ratio

B8: LC-H091Y (antibody, V domains shown)
VH: EVQLVQSGAEVKKPGATVKISCKVSGYSFTGHTMNWIRQPPGKGLEWIGLIKPSNGGTSYNQKFKGRVTISADKSISTAYLQWSSLKASDTAMYYCAHGHYESYFAMDYWGQGTLVTVSS
VL: DIQMTQSPSSLSASVGDRVTITCKASQDVSSAVAWYQQKPGQAPRLLIYWASTRHTGVPSRFSGSGSGTEFTLTISSLQPDDFATYYCQEYFSTPLTFGQGTKVEIK
Affinity ELISA CPE mutant ratio (1:9, pH 6.0/7.4) (Axl protein [1]): 5.13 ratio | Affinity ELISA CPE mutant ratio (1:3, pH 6.0/7.4) (Axl protein [2]): 3.93 ratio

B9: HC-W110L (antibody, V domains shown)
VH: EVQLVQSGAEVKKPGATVKISCKVSGYSFTGHTMNWIRQPPGKGLEWIGLIKPSNGGTSYNQKFKGRVTISADKSISTAYLQWSSLKASDTAMYYCAHGHYESYFAMDYLGQGTLVTVSS
VL: DIQMTQSPSSLSASVGDRVTITCKASQDVSSAVAWYQQKPGQAPRLLIYWASTRHTGVPSRFSGSGSGTEFTLTISSLQPDDFATYYCQEHFSTPLTFGQGTKVEIK
Affinity ELISA CPE mutant ratio (1:3, pH 6.0/7.4) (Axl protein [3]): 8.22 ratio | Affinity ELISA CPE mutant ratio (1:9, pH 6.0/7.4) (Axl protein [4]): 0.924 ratio

B10: HC-A106Y (antibody, V domains shown)
VH: EVQLVQSGAEVKKPGATVKISCKVSGYSFTGHTMNWIRQPPGKGLEWIGLIKPSNGGTSYNQKFKGRVTISADKSISTAYLQWSSLKASDTAMYYCAHGHYESYFYMDYWGQGTLVTVSS
VL: DIQMTQSPSSLSASVGDRVTITCKASQDVSSAVAWYQQKPGQAPRLLIYWASTRHTGVPSRFSGSGSGTEFTLTISSLQPDDFATYYCQEHFSTPLTFGQGTKVEIK
Affinity ELISA CPE mutant ratio (1:3, pH 6.0/7.4) (Axl protein [3]): 3.29 ratio | Affinity ELISA CPE mutant ratio (1:9, pH 6.0/7.4) (Axl protein [4]): 3.06 ratio

B11: HC-W110R (antibody, V domains shown)
VH: EVQLVQSGAEVKKPGATVKISCKVSGYSFTGHTMNWIRQPPGKGLEWIGLIKPSNGGTSYNQKFKGRVTISADKSISTAYLQWSSLKASDTAMYYCAHGHYESYFAMDYRGQGTLVTVSS
VL: DIQMTQSPSSLSASVGDRVTITCKASQDVSSAVAWYQQKPGQAPRLLIYWASTRHTGVPSRFSGSGSGTEFTLTISSLQPDDFATYYCQEHFSTPLTFGQGTKVEIK
Affinity ELISA CPE mutant ratio (1:3, pH 6.0/7.4) (Axl protein [3]): 5.99 ratio | Affinity ELISA CPE mutant ratio (1:9, pH 6.0/7.4) (Axl protein [4]): 1.06 ratio

B12: HC-M107E (antibody, V domains shown)
VH: EVQLVQSGAEVKKPGATVKISCKVSGYSFTGHTMNWIRQPPGKGLEWIGLIKPSNGGTSYNQKFKGRVTISADKSISTAYLQWSSLKASDTAMYYCAHGHYESYFAEDYWGQGTLVTVSS
VL: DIQMTQSPSSLSASVGDRVTITCKASQDVSSAVAWYQQKPGQAPRLLIYWASTRHTGVPSRFSGSGSGTEFTLTISSLQPDDFATYYCQEHFSTPLTFGQGTKVEIK
Affinity ELISA CPE mutant ratio (1:3, pH 6.0/7.4) (Axl protein [3]): 2.16 ratio | Affinity ELISA CPE mutant ratio (1:9, pH 6.0/7.4) (Axl protein [4]): 1.36 ratio

B13: HC-W110D (antibody, V domains shown)
VH: EVQLVQSGAEVKKPGATVKISCKVSGYSFTGHTMNWIRQPPGKGLEWIGLIKPSNGGTSYNQKFKGRVTISADKSISTAYLQWSSLKASDTAMYYCAHGHYESYFAMDYDGQGTLVTVSS
VL: DIQMTQSPSSLSASVGDRVTITCKASQDVSSAVAWYQQKPGQAPRLLIYWASTRHTGVPSRFSGSGSGTEFTLTISSLQPDDFATYYCQEHFSTPLTFGQGTKVEIK
Affinity ELISA CPE mutant ratio (1:3, pH 6.0/7.4) (Axl protein [3]): 3.72 ratio | Affinity ELISA CPE mutant ratio (1:9, pH 6.0/7.4) (Axl protein [4]): 1.11 ratio

B14: HC-M107F (antibody, V domains shown)
VH: EVQLVQSGAEVKKPGATVKISCKVSGYSFTGHTMNWIRQPPGKGLEWIGLIKPSNGGTSYNQKFKGRVTISADKSISTAYLQWSSLKASDTAMYYCAHGHYESYFAFDYWGQGTLVTVSS
VL: DIQMTQSPSSLSASVGDRVTITCKASQDVSSAVAWYQQKPGQAPRLLIYWASTRHTGVPSRFSGSGSGTEFTLTISSLQPDDFATYYCQEHFSTPLTFGQGTKVEIK
Affinity ELISA CPE mutant ratio (1:3, pH 6.0/7.4) (Axl protein [3]): 20.6 ratio | Affinity ELISA CPE mutant ratio (1:9, pH 6.0/7.4) (Axl protein [4]): 1.09 ratio

B15: HC-W110A (antibody, V domains shown)
VH: EVQLVQSGAEVKKPGATVKISCKVSGYSFTGHTMNWIRQPPGKGLEWIGLIKPSNGGTSYNQKFKGRVTISADKSISTAYLQWSSLKASDTAMYYCAHGHYESYFAMDYAGQGTLVTVSS
VL: DIQMTQSPSSLSASVGDRVTITCKASQDVSSAVAWYQQKPGQAPRLLIYWASTRHTGVPSRFSGSGSGTEFTLTISSLQPDDFATYYCQEHFSTPLTFGQGTKVEIK
Affinity ELISA CPE mutant ratio (1:3, pH 6.0/7.4) (Axl protein [3]): 7.91 ratio | Affinity ELISA CPE mutant ratio (1:9, pH 6.0/7.4) (Axl protein [4]): 1.2 ratio

B16: HC-W110P (antibody, V domains shown)
VH: EVQLVQSGAEVKKPGATVKISCKVSGYSFTGHTMNWIRQPPGKGLEWIGLIKPSNGGTSYNQKFKGRVTISADKSISTAYLQWSSLKASDTAMYYCAHGHYESYFAMDYPGQGTLVTVSS
VL: DIQMTQSPSSLSASVGDRVTITCKASQDVSSAVAWYQQKPGQAPRLLIYWASTRHTGVPSRFSGSGSGTEFTLTISSLQPDDFATYYCQEHFSTPLTFGQGTKVEIK
Affinity ELISA CPE mutant ratio (1:3, pH 6.0/7.4) (Axl protein [3]): 6.49 ratio | Affinity ELISA CPE mutant ratio (1:9, pH 6.0/7.4) (Axl protein [4]): 2.15 ratio

B17: HC-G111H (antibody, V domains shown)
VH: EVQLVQSGAEVKKPGATVKISCKVSGYSFTGHTMNWIRQPPGKGLEWIGLIKPSNGGTSYNQKFKGRVTISADKSISTAYLQWSSLKASDTAMYYCAHGHYESYFAMDYWHQGTLVTVSS
VL: DIQMTQSPSSLSASVGDRVTITCKASQDVSSAVAWYQQKPGQAPRLLIYWASTRHTGVPSRFSGSGSGTEFTLTISSLQPDDFATYYCQEHFSTPLTFGQGTKVEIK
Affinity ELISA CPE mutant ratio (1:3, pH 6.0/7.4) (Axl protein [3]): 1.06 ratio | Affinity ELISA CPE mutant ratio (1:9, pH 6.0/7.4) (Axl protein [4]): 1.79 ratio
